Legend:
[1] = target: Aβ(1-40), P05067
[2] = target: Aβ(1-42), P05067

| Protein | Aβ cleavage (ELISA-based assay of intact Aβ) [1] | Aβ cleavage (ELISA-based assay of intact Aβ) [2] |
| --- | --- | --- |
| endothelin-converting enzyme 2 (ECE2) (protein) GVQYHRDPSHSTCLTEACIRVAGKILESLDRGVSPCEDFYQFSCGGWIRRNPLPDGRSRWNTFNSLWDQNQAILKHLLENTTFNSSSEAEQKTQRFYLSCLQVERIEELGAQPLRDLIEKIGGWNITGPWDQDNFMEVLKAVAGTYRATPFFTVYISADSKSSNSNVIQVDQSGLFLPSRDYYLNRTANEKVLTAYLDYMEELGMLLGGRPTSTREQMQQVLELEIQLANITVPQDQRRDEEKIYHKMSISELQALAPSMDWLEFLSFLLSPLELSDSEPVVVYGMDYLQQVSELINRTEPSILNNYLIWNLVQKTTSSLDRRFESAQEKLLETLYGTKKSCVPRWQTCISNTDDALGFALGSLFVKATFDRQSKEIAEGMISEIRTAFEEALGQLVWMDEKTRQAAKEKADAIYDMIGFPDFILEPKELDDVYDGYEISEDSFFQNMLNLYNFSAKVMADQLRKPPSRDQWSMTPQTVNAYYLPTKNEIVFPAGILQAPFYARNHPKALNFGGIGVVMGHELTHAFDDQGREYDKEGNLRPWWQNESLAAFRNHTACMEEQYNQYQVNGERLNGRQTLGENIADNGGLKAAYNAYKAWLRKHGEEQQLPAVGLTNHQLFFVGFAQVWCSVRTPESSHEGLVTDPHSPARFRVLGTLSNSRDFLRHFGCPVGSPMNPGQLCEVW | ECE2 and ACE were completely inactive on both Aβ isoforms | ECE2 and ACE were completely inactive on both Aβ isoforms |
| angiotensin-converting enzyme (ACE) (protein) LDPGLQPGNFSADEAGAQLFAQSYNSSAEQVLFQSVAASWAHDTNITAENARRQEEAALLSQEFAEAWGQKAKELYEPIWQNFTDPQLRRIIGAVRTLGSANLPLAKRQQYNALLSNMSRIYSTAKVCLPNKTATCWSLDPDLTNILASSRSYAMLLFAWEGWHNAAGIPLKPLYEDFTALSNEAYKQDGFTDTGAYWRSWYNSPTFEDDLEHLYQQLEPLYLNLHAFVRRALHRRYGDRYINLRGPIPAHLLGDMWAQSWENIYDMVVPFPDKPNLDVTSTMLQQGWNATHMFRVAEEFFTSLELSPMPPEFWEGSMLEKPADGREVVCHASAWDFYNRKDFRIKQCTRVTMDQLSTVHHEMGHIQYYLQYKDLPVSLRRGANPGFHEAIGDVLALSVSTPEHLHKIGLLDRVTNDTESDINYLLKMALEKIAFLPFGYLVDQWRWGVFSGRTPPSRYNFDWWYLRTKYQGICPPVTRNETHFDAGAKFHVPNVTPYIRYFVSFVLQFQFHEALCKEAGYEGPLHQCDIYRSTKAGAKLRKVLQAGSSRPWQEVLKDMVGLDALDAQPLLKYFQPVTQWLQEQNQQNGEVLGWPEYQWHPPLPDNYPEGIDLVTDEAEASKFVEEYDRTSQVVWNEYAEANWNYNTNITTETSKILLQKNMQIANHTLKYGTQARKFDVNQLQNTTIKRIIKKVQDLERAALPAQELEEYNKILLDMETTYSVATVCHPNGSCLQLEPDLTNVMATSRKYEDLLWAWEGWRDKAGRAILQFYPKYVELINQAARLNGYVDAGDSWRSMYETPSLEQDLERLFQELQPLYLNLHAYVRRALHRHYGAQHINLEGPIPAHLLGNMWAQTWSNIYDLVVPFPSAPSMDTTEAMLKQGWTPRRMFKEADDFFTSLGLLPVPPEFWNKSMLEKPTDGREVVCHASAWDFYNGKDFRIKQCTTVNLEDLVVAHHEMGHIQYFMQYKDLPVALREGANPGFHEAIGDVLALSVSTPKHLHSLNLLSSEGGSDEHDINFLMKMALDKIAFIPFSYLVDQWRWRVFDGSITKENYNQEWWSLRLKYQGLCPPVPRTQGDFDPGAKFHIPSSVPYIRYFVSFIIQFQFHEALCQAAGHTGPLHKCDIYQSKEAGQRLATAMKLGFSRPWPEAMQLITGQPNMSASAMLSYFKPLLDWLRTENELHGEKLGWPQYNWTPNSARSEGPLPDSGRVSFLGLDLDAQQARVGQWL | ECE2 and ACE were completely inactive on both Aβ isoforms | ECE2 and ACE were completely inactive on both Aβ isoforms |
